Reference: the supplement of paper PMC10065799, “High-throughput profiling of sequence recognition by tyrosine kinases and SH2 domains using bacterial peptide display” (eLife, 2023)

Legend:
[1] = target: c-Src SH2; test: SH2 binding enrichment of the phosphorylated peptide, bacterial display (enrichment ratio); higher = better substrate or ligand; peptides without Tyr show the background
[2] = target: Grb2 SH2 (UniProt P62993); test: as above
[3] = target: SHP2-C SH2; test: as above
[4] = target: MERTK (UniProt Q12866); test: phosphorylation enrichment, bacterial display (enrichment ratio); higher = better substrate or ligand; peptides without Tyr show the background
[5] = test system: Fer (mouse); test: as above
[6] = target: Fes (UniProt P07332); test: as above
[7] = test system: c-Abl (mouse); test: as above
[8] = test system: c-Src; test: as above
[9] = target: FGFR3 (UniProt P22607); test: as above
[10] = target: Hck (UniProt P08631); test: as above
[11] = target: Jak2 (UniProt O60674); test: as above
[12] = target: EPHB1 (UniProt P54762); test: as above
[13] = target: Fyn (UniProt P06241); test: as above
[14] = test system: AncSZ; test: as above
[15] = target: EPHB2 (UniProt P29323); test: as above
[16] = target: FGFR1 (UniProt P11362); test: as above
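For SH2 binding enrichment of the phosphorylated peptide, bacterial display in this document: peptide library displayed on the E. coli surface as eCPX fusions, selected cells deep-sequenced, score is each peptide's frequency after selection divided by its frequency in the input.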
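For phosphorylation enrichment, bacterial display in this document: 11-residue human phosphosite peptides and single-mutation variants displayed on the E. coli surface, counted by deep sequencing, each peptide's frequency after selection divided by its frequency in the unselected input library; frequency after pTyr selection over input frequency; kinase dosed for 20-30% of maximal phosphorylation in three min.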

Sequence of MERTK (Q12866 whole entry, looked up): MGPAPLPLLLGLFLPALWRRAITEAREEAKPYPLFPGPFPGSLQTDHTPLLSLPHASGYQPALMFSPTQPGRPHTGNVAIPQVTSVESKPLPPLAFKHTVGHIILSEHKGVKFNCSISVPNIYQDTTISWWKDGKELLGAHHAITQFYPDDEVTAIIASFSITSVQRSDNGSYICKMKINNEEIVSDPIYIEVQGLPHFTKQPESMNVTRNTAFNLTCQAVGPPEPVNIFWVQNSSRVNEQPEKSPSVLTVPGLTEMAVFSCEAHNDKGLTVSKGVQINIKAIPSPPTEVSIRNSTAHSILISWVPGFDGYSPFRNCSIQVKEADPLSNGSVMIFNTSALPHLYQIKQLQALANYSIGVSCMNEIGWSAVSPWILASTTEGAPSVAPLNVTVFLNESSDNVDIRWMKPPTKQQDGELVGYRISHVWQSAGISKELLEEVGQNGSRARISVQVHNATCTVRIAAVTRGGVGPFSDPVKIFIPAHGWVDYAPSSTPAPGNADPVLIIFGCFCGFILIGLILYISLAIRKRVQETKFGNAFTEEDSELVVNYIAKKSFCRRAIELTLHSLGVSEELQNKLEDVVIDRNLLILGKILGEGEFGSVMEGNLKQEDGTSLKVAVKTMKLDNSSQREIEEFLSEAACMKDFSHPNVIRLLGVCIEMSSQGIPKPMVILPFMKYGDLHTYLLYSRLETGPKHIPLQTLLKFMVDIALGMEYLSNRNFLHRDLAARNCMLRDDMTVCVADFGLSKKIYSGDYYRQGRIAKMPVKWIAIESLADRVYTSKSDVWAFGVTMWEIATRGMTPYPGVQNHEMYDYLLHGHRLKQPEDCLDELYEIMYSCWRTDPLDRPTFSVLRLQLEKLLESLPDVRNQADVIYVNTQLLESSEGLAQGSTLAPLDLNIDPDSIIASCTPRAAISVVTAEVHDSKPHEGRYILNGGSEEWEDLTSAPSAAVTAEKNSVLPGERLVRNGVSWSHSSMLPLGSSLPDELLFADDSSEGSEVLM
Sequence of EPHB1 (P54762 whole entry, looked up): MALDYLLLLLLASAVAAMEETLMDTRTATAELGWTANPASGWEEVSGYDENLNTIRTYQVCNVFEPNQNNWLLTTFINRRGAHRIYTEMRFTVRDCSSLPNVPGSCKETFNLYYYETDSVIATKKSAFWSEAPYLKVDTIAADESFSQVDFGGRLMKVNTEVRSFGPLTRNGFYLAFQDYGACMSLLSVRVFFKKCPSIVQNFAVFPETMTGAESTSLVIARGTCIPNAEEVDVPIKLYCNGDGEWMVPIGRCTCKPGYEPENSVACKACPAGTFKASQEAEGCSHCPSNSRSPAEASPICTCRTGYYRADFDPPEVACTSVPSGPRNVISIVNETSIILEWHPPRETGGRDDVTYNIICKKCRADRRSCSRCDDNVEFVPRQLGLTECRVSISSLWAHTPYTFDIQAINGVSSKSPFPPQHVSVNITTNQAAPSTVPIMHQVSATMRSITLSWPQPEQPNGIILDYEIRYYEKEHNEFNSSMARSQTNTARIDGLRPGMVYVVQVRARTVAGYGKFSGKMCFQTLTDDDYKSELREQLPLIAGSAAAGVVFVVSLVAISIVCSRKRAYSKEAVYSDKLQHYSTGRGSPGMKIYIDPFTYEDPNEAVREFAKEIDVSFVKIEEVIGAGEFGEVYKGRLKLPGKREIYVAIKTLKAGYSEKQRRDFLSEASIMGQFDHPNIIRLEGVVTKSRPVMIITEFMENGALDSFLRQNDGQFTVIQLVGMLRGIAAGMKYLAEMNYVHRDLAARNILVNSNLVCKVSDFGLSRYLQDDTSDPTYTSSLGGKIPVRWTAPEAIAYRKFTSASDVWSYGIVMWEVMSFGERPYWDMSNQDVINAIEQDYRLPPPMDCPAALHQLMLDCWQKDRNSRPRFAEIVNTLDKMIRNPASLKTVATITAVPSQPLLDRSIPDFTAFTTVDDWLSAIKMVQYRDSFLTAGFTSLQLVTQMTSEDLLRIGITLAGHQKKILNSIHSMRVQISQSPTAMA
Sequence of FGFR3 (P22607 whole entry, looked up): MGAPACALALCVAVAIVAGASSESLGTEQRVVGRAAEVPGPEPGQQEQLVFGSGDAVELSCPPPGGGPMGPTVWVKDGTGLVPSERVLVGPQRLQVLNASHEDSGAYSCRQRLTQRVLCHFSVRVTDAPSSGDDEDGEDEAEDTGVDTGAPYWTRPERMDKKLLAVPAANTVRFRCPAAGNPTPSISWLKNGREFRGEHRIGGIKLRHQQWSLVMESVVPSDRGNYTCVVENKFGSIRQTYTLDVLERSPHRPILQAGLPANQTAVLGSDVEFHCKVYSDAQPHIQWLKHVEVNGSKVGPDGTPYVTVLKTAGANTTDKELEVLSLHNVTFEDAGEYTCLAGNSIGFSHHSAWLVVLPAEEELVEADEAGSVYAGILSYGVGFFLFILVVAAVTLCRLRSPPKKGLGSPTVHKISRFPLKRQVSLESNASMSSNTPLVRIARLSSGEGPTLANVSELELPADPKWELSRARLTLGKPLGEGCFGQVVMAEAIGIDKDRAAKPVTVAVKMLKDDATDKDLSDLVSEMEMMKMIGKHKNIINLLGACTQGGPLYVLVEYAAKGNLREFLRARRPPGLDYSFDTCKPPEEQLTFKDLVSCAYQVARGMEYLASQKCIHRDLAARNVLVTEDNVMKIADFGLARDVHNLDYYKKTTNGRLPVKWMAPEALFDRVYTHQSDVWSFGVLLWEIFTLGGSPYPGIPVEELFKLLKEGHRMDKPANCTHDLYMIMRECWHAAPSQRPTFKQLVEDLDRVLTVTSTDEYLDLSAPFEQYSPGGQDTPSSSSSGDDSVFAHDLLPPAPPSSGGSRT
Sequence of EPHB2 (P29323 whole entry, looked up): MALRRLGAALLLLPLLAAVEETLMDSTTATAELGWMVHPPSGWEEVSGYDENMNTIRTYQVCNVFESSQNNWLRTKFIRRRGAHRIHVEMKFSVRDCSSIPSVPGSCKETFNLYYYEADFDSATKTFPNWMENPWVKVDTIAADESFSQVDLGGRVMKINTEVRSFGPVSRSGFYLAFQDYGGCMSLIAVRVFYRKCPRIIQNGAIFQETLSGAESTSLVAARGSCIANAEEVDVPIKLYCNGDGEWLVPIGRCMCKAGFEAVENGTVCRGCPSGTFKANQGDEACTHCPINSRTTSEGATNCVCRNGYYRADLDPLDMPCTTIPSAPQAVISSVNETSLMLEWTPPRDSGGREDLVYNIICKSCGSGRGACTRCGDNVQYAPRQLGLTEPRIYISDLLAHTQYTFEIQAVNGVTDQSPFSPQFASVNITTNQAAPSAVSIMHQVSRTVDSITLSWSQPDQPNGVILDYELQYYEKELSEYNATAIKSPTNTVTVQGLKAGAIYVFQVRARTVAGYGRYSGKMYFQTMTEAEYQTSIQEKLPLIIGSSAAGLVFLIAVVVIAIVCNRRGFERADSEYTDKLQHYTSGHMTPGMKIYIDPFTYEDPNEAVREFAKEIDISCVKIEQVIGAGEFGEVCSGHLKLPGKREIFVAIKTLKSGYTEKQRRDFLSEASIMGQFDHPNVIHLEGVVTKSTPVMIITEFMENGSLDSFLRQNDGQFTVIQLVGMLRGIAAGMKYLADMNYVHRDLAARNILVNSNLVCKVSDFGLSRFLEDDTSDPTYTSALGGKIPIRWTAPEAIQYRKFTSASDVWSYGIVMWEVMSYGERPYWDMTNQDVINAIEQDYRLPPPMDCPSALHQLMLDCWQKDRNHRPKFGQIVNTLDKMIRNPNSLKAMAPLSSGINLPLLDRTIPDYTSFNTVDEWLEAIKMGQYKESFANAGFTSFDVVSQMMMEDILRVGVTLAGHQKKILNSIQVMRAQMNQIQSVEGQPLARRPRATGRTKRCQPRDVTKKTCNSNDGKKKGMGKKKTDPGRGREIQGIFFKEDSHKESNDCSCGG
Sequence of Fes (P07332 whole entry, looked up): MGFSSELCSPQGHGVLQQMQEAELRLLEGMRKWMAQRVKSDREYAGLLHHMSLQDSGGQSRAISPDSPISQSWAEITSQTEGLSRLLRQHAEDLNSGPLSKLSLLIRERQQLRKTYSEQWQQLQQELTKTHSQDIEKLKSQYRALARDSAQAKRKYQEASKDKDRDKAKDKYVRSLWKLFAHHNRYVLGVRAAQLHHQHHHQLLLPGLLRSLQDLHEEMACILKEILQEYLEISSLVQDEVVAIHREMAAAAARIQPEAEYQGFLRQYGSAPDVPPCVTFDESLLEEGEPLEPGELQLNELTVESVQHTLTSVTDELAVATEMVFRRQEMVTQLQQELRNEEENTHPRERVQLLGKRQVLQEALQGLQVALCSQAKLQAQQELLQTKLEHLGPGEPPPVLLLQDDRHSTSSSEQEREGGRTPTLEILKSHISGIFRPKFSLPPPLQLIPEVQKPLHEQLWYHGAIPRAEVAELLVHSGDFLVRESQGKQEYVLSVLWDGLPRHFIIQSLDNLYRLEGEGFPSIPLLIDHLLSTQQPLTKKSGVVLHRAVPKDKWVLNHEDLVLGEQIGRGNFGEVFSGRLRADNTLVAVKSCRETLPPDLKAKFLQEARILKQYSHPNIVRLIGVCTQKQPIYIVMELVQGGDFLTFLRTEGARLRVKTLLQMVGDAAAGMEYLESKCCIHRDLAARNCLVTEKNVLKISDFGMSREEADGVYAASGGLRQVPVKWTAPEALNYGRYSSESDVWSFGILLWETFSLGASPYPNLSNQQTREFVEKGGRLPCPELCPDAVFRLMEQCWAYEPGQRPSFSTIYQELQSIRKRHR

SH2 binding enrichment [1] | SH2 binding enrichment [2] | SH2 binding enrichment [3] | Sequence | phosphorylation enrichment [4] | phosphorylation enrichment [5] | phosphorylation enrichment [6] | phosphorylation enrichment [7] | phosphorylation enrichment [8] | phosphorylation enrichment [9] | phosphorylation enrichment [10] | phosphorylation enrichment [11] | phosphorylation enrichment [12] | phosphorylation enrichment [13] | phosphorylation enrichment [14] | phosphorylation enrichment [15] | phosphorylation enrichment [16]
0.453 | 0.815 | 0.766 | IIGNGYFFRVF [MYBPC3_Y1135_YF] | 0.28 | 0.394 | 0.98 | 0.692 | 0.288 | 0.538 | 0.33 | 0.956 | 0.433 | 0.258 | 0.844 | 0.461 | 0.334
0.462 | 0.773 | 0.555 | FSKRIYKGMVA [PCDH15_Y931] | 0.362 | 0.369 | 0.534 | 0.332 | 0.338 | 0.367 | 0.352 | 0.402 | 0.231 | 0.392 | 0.426 | 0.5 | 0.262
0.775 | 1.02 | 0.73 | KYLENYYDLKK [MMP3_Y41] | 0.709 | 0.513 | 0.99 | 0.736 | 1.15 | 4.8 | 2.16 | 0.782 | 7.15 | 2.24 | 0.922 | 2.77 | 7.68
0.554 | 1.08 | 1.02 | NHYKIHNLCAE [PTEN_Y68_Y68H] | 0.435 | 0.463 | 0.823 | 0.696 | 0.492 | 0.58 | 0.476 | 0.706 | 0.56 | 0.421 | 0.593 | 0.614 | 0.493
0.433 | 0.766 | 0.962 | HFMKLYEEKTG [PARP1_Y618] | 0.438 | 0.277 | 0.663 | 0.355 | 0.425 | 1.08 | 0.519 | 0.592 | 0.482 | 0.282 | 0.862 | 0.46 | 0.464
0.709 | 0.778 | 0.86 | QAFSWYQHQRA [NDST1_Y714_R709Q_YF] | 0.569 | 0.863 | 1.64 | 0.731 | 0.371 | 1.02 | 0.547 | 1.43 | 1.03 | 0.658 | 1.61 | 0.71 | 0.687
0.41 | 0.584 | 0.685 | QEALEYFMKQT [PIK3CA_Y1038_M1043T] | 0.813 | 1.82 | 3.76 | 1.85 | 1.6 | 2.76 | 1.05 | 3.01 | 1.31 | 1.93 | 3.3 | 1.64 | 1.67
0.56 | 0.677 | 0.82 | TGFRPYVCPFD [YY1_Y383_D380Y_YF] | 0.849 | 0.892 | 0.975 | 1.29 | 0.458 | 1.66 | 0.691 | 1.12 | 2.1 | 0.4 | 1.54 | 0.978 | 1.1
0.734 | 1.17 | 1.14 | QRPYVYYYSYL [PTEN_Y176_R173P] | 8.05 | 2 | 2.35 | 1.59 | 5.34 | 7.23 | 3.7 | 6.45 | 4.84 | 3.38 | 2.26 | 4.08 | 9.79
0.651 | 0.934 | 0.697 | KVMANYMFKAG [MAML2_Y513_YF] | 0.432 | 0.394 | 0.675 | 0.556 | 0.414 | 0.418 | 0.342 | 0.519 | 0.448 | 0.344 | 0.638 | 0.744 | 0.412
2.09 | 0.803 | 1.27 | VDTPMYATMQR [TPO_Y55_A53P] | 1.81 | 0.706 | 0.942 | 2.11 | 3.3 | 0.684 | 5.46 | 0.593 | 1.1 | 3.58 | 0.826 | 0.838 | 0.52
0.494 | 0.894 | 0.828 | VEDDMYRKTCT [XPA_Y257_L252V] | 0.507 | 0.696 | 1.3 | 0.932 | 0.544 | 0.868 | 0.626 | 1.33 | 0.676 | 0.602 | 1.33 | 0.636 | 0.559
0.379 | 0.542 | 0.471 | FRASFYRRGDR [LTK_Y677_YF] | 0.722 | 0.456 | 0.631 | 0.634 | 0.709 | 0.526 | 0.463 | 0.583 | 0.543 | 0.617 | 0.756 | 0.552 | 0.549
0.481 | 0.774 | 0.627 | DENWFYMRAAS [RPS19_Y54_T55M] | 0.379 | 0.594 | 1.52 | 0.869 | 0.384 | 0.933 | 0.485 | 1.25 | 0.718 | 0.43 | 1.35 | 0.654 | 0.654

Continued, sequence first:

Sequence | SH2 binding enrichment [1] | SH2 binding enrichment [2] | SH2 binding enrichment [3] | phosphorylation enrichment [4] | phosphorylation enrichment [5] | phosphorylation enrichment [6] | phosphorylation enrichment [7] | phosphorylation enrichment [8] | phosphorylation enrichment [9] | phosphorylation enrichment [10] | phosphorylation enrichment [11] | phosphorylation enrichment [12] | phosphorylation enrichment [13] | phosphorylation enrichment [14] | phosphorylation enrichment [15] | phosphorylation enrichment [16]
DVLPEYKLQAP [KCNH2_Y388] | 0.508 | 1.02 | 0.625 | 0.432 | 0.427 | 0.861 | 0.693 | 0.405 | 0.728 | 0.519 | 0.659 | 0.548 | 0.53 | 0.911 | 0.557 | 0.48
VASSLYDILAR [GLB1_Y294] | 0.78 | 0.567 | 0.67 | 8.38 | 1.96 | 1.05 | 0.763 | 2.84 | 0.557 | 8.2 | 1.24 | 1.16 | 1.77 | 1.02 | 1.01 | 0.37
DRTGHYLCNAC [GATA1_Y223] | 0.503 | 0.792 | 0.595 | 0.499 | 0.408 | 0.769 | 0.575 | 0.469 | 0.449 | 0.489 | 0.885 | 0.389 | 0.389 | 0.691 | 0.676 | 0.349
KELAKYFKLHH [AK7_Y390_N389K_YF] | 0.497 | 0.759 | 0.635 | 0.51 | 0.466 | 0.626 | 0.439 | 0.493 | 0.543 | 0.484 | 0.487 | 0.394 | 0.505 | 0.596 | 0.459 | 0.456
IHETTYKSIMK [ACTA1_Y281_N282K] | 0.55 | 0.804 | 3.31 | 0.331 | 0.372 | 0.583 | 0.458 | 0.384 | 0.472 | 0.359 | 0.692 | 0.324 | 0.309 | 0.364 | 0.33 | 0.373
RHNEIYEIKVD [LGR5_Y387] | 0.479 | 1.09 | 0.629 | 0.616 | 0.915 | 1.18 | 0.768 | 8.99 | 1.02 | 6.57 | 1.86 | 0.312 | 8.54 | 1.12 | 0.671 | 0.724
TAALWYIYLHT [ENG_Y612_S615L] | 0.514 | 0.989 | 0.52 | 0.516 | 0.769 | 1.66 | 1.18 | 0.566 | 1.1 | 0.579 | 1.55 | 0.796 | 0.587 | 1.41 | 0.639 | 0.81
LGGSPYPSVPV [FGFR1_Y701_G703S] | 0.476 | 0.915 | 0.608 | 0.614 | 0.675 | 1.25 | 0.747 | 0.453 | 0.646 | 0.817 | 0.645 | 0.85 | 0.564 | 1.04 | 0.735 | 0.784
GTATTYLCGVK [ALPL_Y117_A116T] | 0.483 | 0.67 | 1.15 | 0.493 | 0.495 | 1.13 | 0.811 | 0.472 | 0.758 | 0.582 | 0.946 | 0.5 | 0.479 | 0.914 | 0.8 | 0.595
FPKARYHWLVL [APTX_Y214_YF] | 1.42 | 1.5 | 1.94 | 0.731 | 0.675 | 0.945 | 0.647 | 0.39 | 0.777 | 0.53 | 0.772 | 0.588 | 0.491 | 1.03 | 0.457 | 0.645
DHFNQYEQQKM [CHD7_Y75_YF] | 0.501 | 0.752 | 0.682 | 0.425 | 0.415 | 0.744 | 0.599 | 0.414 | 0.582 | 0.47 | 0.535 | 0.457 | 0.382 | 0.834 | 0.462 | 0.468
DPYHVYIKNHV [KCNE3_Y95_R99H] | 0.939 | 0.804 | 0.779 | 0.399 | 0.45 | 0.826 | 0.685 | 2.34 | 0.533 | 0.705 | 0.798 | 0.467 | 0.981 | 0.845 | 0.459 | 0.447
RGRSTYFWPRP [GAGE12J_Y9_YF] | 0.489 | 0.456 | 0.704 | 1.3 | 1.11 | 1.02 | 1.17 | 0.999 | 1.06 | 0.636 | 0.838 | 0.875 | 0.641 | 1.15 | 0.652 | 0.93
FPCSVYMPDEW [INSR_Y1011_V1012M] | 0.989 | 1 | 0.956 | 0.559 | 0.512 | 1.06 | 0.687 | 3.15 | 0.712 | 0.596 | 1.1 | 0.6 | 0.875 | 1.19 | 0.644 | 0.658
YYSSEYHYVGG [CTSC_Y345] | 1.98 | 0.929 | 1.13 | 12.1 | 4.51 | 0.945 | 12.8 | 4.92 | 16.1 | 6.11 | 7.76 | 15.5 | 5 | 6.21 | 17.6 | 17.4
KTNVSYCGALD [CACNB4_Y103] | 0.551 | 0.9 | 0.726 | 0.389 | 0.46 | 0.834 | 0.745 | 0.469 | 0.643 | 0.503 | 0.754 | 0.564 | 0.381 | 0.778 | 0.508 | 0.494
KAEQLYIGVTV [EFHC2_Y509_E507Q] | 0.454 | 0.708 | 0.733 | 2.99 | 6.51 | 1.25 | 0.876 | 2.33 | 2.88 | 3.03 | 0.964 | 1.27 | 2.33 | 1.84 | 0.758 | 3.47
PNAFIYVVQLP [L1CAM_Y420_A415P_YF] | 0.656 | 0.931 | 0.768 | 1.69 | 0.737 | 1.56 | 0.747 | 0.87 | 1.31 | 1.06 | 1.26 | 1.2 | 0.896 | 1.39 | 1.53 | 0.797
ANNEFYFQVCA | 0.337 | 0.741 | 0.662 | 0.43 | 0.601 | 1.37 | 0.818 | 0.486 | 0.939 | 0.536 | 1.25 | 0.656 | 0.478 | 1.26 | 0.588 | 0.755
